Biological target: Recombinant human Src expressed in Sf9 insect cells (purified recombinant full-length Src from Upstate … (human, UniProt P12931 2-536))
Assay: cell-based or functional assay

B1: pNaKtide (HIV-Tat-NaKtide) (peptide)
peptide: not shown
Q: B1 was tested. Which “IC50 of Src inhibition (in vitro kinase assay)” value did it give?
A: The value was roughly 5 nM.

Source: patent publication US20110245167A1 (UNIVERSITY OF TOLEDO, published 2011)
